Experimental data: patent publication US20230064978A1, “CYCLIC PEPTIDE RECEPTOR LANTHIONINE SYNTHETASE C-LIKE PROTEIN (LANCL) AND USES THEREOF” (LATERAL IP PTY LTD, priority 2019, published 2023)
Bridges are numbered along the chain shown (N, C = ends). Where no end group is shown, it is not given here.

Legend:
[1] = system: spinal cord slice model; experiment: Spinal cord slice model; details: data not shown
[2] = molecular target: Recombinant human 6His-LaNCL1 protein (Homo sapiens, UniProt O43813); experiment: In-vitro photolabelling of 6His-LanCL1 and LC-MS/MS to identify binding site
Protocol: Recombinant human 6His-LaNCL1 protein (2 μM, 1 nmol, 53 μg) in 530 μL PBS was pre-incubated with 50 μM of LAT8881 or DMSO for 10 min and then treated with 25 μM LAT9991-PAL for another 30 min at RT in Nunc™ MicroWell™ 96-well plates (Thermo Fisher Scientific cat #167008) (final reaction volume, 530 μL). The samples were UV-irradiated (365 nm) for 20 min at 4° C. After UV-irradiation, the samples were split in two different samples containing 3 μg or 50 μg of protein.
Protein samples (3 μg protein) were adjusted to 1% SDS and 10 mM DTT. After incubation for 1 h at 56° C., protein samples were treated with 30 mM iodoacetamide for 45 min at RT in the dark. Dry acetone (9 volumes) prechilled to −20° C. was added and the cloudy mixture was vortexed thoroughly and incubated at −20° C. overnight. After centrifugation (15,000×g for 10 min at 4° C.), the supernatants were poured off and the remaining pellets washed with −20° C. acetone. […] After removing the supernatants, the protein pellets were air-dried and dissolved in laemmli buffer, heated at 60° C. for 20 minutes and analyzed by in gel fluorescence scanning […]
Peptides were analyzed by nanoLC-MS/MS with the Ultimate 3000 RSLC (Thermo Fisher Scientific) coupled online to a Q-Exactive Plus mass spectrometer with a NanoFlex source. […]

Sequence of Recombinant human 6His-LaNCL1 protein (O43813 with tags, fused parts or gaps): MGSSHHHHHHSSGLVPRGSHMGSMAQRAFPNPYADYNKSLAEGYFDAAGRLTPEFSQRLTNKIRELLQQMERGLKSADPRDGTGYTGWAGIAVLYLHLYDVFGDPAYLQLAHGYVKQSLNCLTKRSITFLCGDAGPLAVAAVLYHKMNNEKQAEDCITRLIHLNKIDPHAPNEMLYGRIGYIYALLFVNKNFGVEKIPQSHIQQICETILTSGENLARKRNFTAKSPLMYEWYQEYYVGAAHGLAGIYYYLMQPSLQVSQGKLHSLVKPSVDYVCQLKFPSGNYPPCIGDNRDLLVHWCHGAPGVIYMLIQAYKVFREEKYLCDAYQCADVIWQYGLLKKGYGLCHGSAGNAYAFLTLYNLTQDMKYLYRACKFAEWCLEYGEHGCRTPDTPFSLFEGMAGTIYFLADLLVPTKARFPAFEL

Modified LANCL1 peptide sequence differentially detected ([2]; 25 μM probe, dependent peptide MS analysis): IDPHAPNEM(ox)LYGR | Most likely site for localization of the probe adduct on LANCL1 ([2]; amino acid residues 171-174 of human LANCL1 (SEQ ID NO:56)): PNEM
Substance: LAT9991-PAL: cyclic peptide of SEQ ID NO:12 (LAT9991) conjugated to the PAL (Photo-Activated Labelling) grouping (CRSVEGSCG; disulfide 1-8 (inferred); also: PAL group on N-terminal Cys-Arg part)
Activity on the spinal cord slice model [1]: fully active
